Here are results for 106 variants from the Human Domainome abundance scans (Beltran et al. 2025).

B1: Tyrosine-protein kinase Lck, residues 63 to 120; numbered along this chain, P06239 (parent)
chain: DNLVIALHSYEPSHDGDLGFEKGEQLRILEQSGEWWKAQSLTTGQEGFIPFNFVAKAN

± gives the uncertainty stated by the source.

Variants of B1 are the subject of this data set. The data set can be described thus: abundance fitness (aPCA) (normalised: wild type 0, dead -1); higher = more abundant; growth selection in yeast, the domain comes from the species named. The following applies: Homo sapiens.
As for P50K, the abundance fitness is -0.719 ± 0.15. As for P50N, the abundance fitness is -0.652 ± 0.18. To P50I belongs -0.874 ± 0.24. The same measure for P50H: -0.474 ± 0.15; for P50W: -0.709 ± 0.16; for P50Y: -1.08 ± 0.34. On to P50E, for which the abundance fitness was -1.21 ± 0.28.

With P50T, the abundance fitness was -0.851 ± 0.15. To P50G belongs -0.888 ± 0.1; to P50V, -0.936 ± 0.13; to P50S, -0.796 ± 0.12. On to P50A, for which the abundance fitness was -1 ± 0.2. As to P50M, the abundance fitness is -1.03 ± 0.18. The same measure for P50F: -0.885 ± 0.21; for P50D: -0.73 ± 0.3. To P50L belongs -0.995 ± 0.12; to N52C, -0.303 ± 0.14. To N52T belongs -0.207 ± 0.12; to N52Y, -0.311 ± 0.12; to N52G, -0.067 ± 0.07. As for N52E, the abundance fitness came out at 0.029 ± 0.12. To N52I belongs -0.854 ± 0.22; to N52P, -0.628 ± 0.12; to N52F, -0.589 ± 0.14.

Turning to N52R, the abundance fitness is -0.017 ± 0.073. As for N52L, the abundance fitness was -0.624 ± 0.087. The same measure for N52A: -0.202 ± 0.082; for N52H: -0.189 ± 0.11. To N52Q belongs -0.021 ± 0.12; to N52W, -0.278 ± 0.12. For the variant N52D, the abundance fitness amounted to 0.001 ± 0.14. In the case of N52K, the abundance fitness is 0.023 ± 0.14. The same measure for N52V: -0.709 ± 0.11; for G47W: -0.831 ± 0.15; for G47V: -0.807 ± 0.09.

Regarding G47T, the abundance fitness is -0.831 ± 0.15. To V54K belongs -1.05 ± 0.21; to V54P, -0.732 ± 0.15. The same measure for V54Q: -0.901 ± 0.21. For V54W, the abundance fitness was -0.754 ± 0.11. To V54Y belongs -0.826 ± 0.16. V54F: the abundance fitness was -0.6 ± 0.16.

With V54T, the abundance fitness is -0.45 ± 0.14. The same measure for V54A: -0.663 ± 0.11; for V54E: -0.709 ± 0.13. Consider V54D, for which the abundance fitness is -0.926 ± 0.2. With V54H, the abundance fitness is -0.967 ± 0.23. Consider V54L, for which the abundance fitness is -0.705 ± 0.1.

As to V54S, the abundance fitness was -0.751 ± 0.11. To V54C belongs -0.375 ± 0.098.

As for V54R, the abundance fitness is -0.813 ± 0.081. To V54M belongs -0.715 ± 0.2; to V54N, -0.859 ± 0.24; to V54I, -0.416 ± 0.11. Consider F51H, for which the abundance fitness is -0.055 ± 0.17. Regarding F51I, the abundance fitness was found to be 0.047 ± 0.18.

For F51D, the abundance fitness was -0.178 ± 0.12. The same measure for F51T: -0.235 ± 0.12. To F51N belongs 0.043 ± 0.15; to F51E, -0.022 ± 0.11. As for F51Y, the abundance fitness was -0.037 ± 0.14. In the case of F51K, the abundance fitness came to 0.103 ± 0.11. On to F51L, for which the abundance fitness was -0.221 ± 0.073. The same measure for F51A: 0.104 ± 0.083; for F51P: 0.07 ± 0.099.

With F51C, the abundance fitness was 0.163 ± 0.1. Consider F51V, for which the abundance fitness is -0.033 ± 0.082. Consider F51M, for which the abundance fitness came out at 0.137 ± 0.12. Consider F51G, for which the abundance fitness worked out at 0.095 ± 0.071. Take F51Q: the abundance fitness is 0.021 ± 0.12. Consider F51R, for which the abundance fitness turned out to be 0.148 ± 0.076. To F53E belongs -0.488 ± 0.12. To F53P belongs -0.842 ± 0.15; to F53V, -0.268 ± 0.066.

Turning to F53C, the abundance fitness is -0.157 ± 0.096. To F53Q belongs -0.293 ± 0.1; to F53R, -0.196 ± 0.066; to F53K, -0.37 ± 0.13. In the case of F53N, the abundance fitness was -0.527 ± 0.11. To F53S belongs 0.032 ± 0.071; to F53M, -0.143 ± 0.12; to F53A, -0.013 ± 0.07. Take F53H: the abundance fitness was -0.162 ± 0.11. For the variant F53I, the abundance fitness is -0.156 ± 0.11. To F53W belongs -0.107 ± 0.11; to F53T, -0.214 ± 0.1; to F53G, -0.423 ± 0.077. As to F53L, the abundance fitness is -0.028 ± 0.071. The same measure for A57V: -0.023 ± 0.085; for A57F: -0.394 ± 0.18; for A57K: -0.18 ± 0.17. To A57T belongs 0.008 ± 0.093; to A57P, -0.046 ± 0.095; to A57N, -0.614 ± 0.42.

For the variant A57R, the abundance fitness is -0.093 ± 0.087. Regarding A57E, the abundance fitness was 0.092 ± 0.15.

In the case of A57W, the abundance fitness is -0.132 ± 0.16. For the variant A57H, the abundance fitness is -0.057 ± 0.15. For the variant A57Q, the abundance fitness was -0.112 ± 0.15. Take A57M: the abundance fitness was -0.195 ± 0.16. Take A57I: the abundance fitness was -0.003 ± 0.19. For A57L, the abundance fitness is 0.003 ± 0.095. To A57S belongs -0.098 ± 0.086; to A57Y, -0.176 ± 0.27. Regarding A57C, the abundance fitness is -0.244 ± 0.17.

As for A57G, the abundance fitness was -0.076 ± 0.078.
